No end group written: not given here.
T1: PACAP-R3 (human, UniProt P41587 24-438)
T1 sequence (looked up): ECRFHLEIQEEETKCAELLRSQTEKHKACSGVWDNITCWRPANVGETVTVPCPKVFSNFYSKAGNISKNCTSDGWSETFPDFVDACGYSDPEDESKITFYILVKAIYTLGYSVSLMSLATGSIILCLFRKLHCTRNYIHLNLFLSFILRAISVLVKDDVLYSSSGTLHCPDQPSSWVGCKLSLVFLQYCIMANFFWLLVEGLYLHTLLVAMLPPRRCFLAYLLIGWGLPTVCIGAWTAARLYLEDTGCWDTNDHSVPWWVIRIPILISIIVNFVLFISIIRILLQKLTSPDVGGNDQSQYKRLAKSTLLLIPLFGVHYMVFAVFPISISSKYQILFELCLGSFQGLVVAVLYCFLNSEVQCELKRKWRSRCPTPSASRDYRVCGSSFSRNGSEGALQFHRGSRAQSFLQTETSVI


molecular target: T1, PACAP-R3; assay: cell-based or functional assay

Row | Binder | R3 Selectivity
1 | HSDAVFTDNYTRLRKQVAAKKYLQSILKK [R3P85] | 30 ratio
2 | HSDAVFTDNYTRLRKQMAAKKYLNSILN [R3P47] | 6 ratio
3 | HSDAVFTDNYTRLRKQMAVKKYLNSIKKK [R3P58] | 170 ratio
4 | HSDGIFTDSYSRYRKQLAAKKYLADVKKGGT [R3P37] | 18 ratio
5 | HSDAVFTDNYTRLRKQMAVKKYLNDILN [R3P48] | 8 ratio
6 | HSDAVFTDNYTRLRKQVAAKKYLNSIKKKR [R3P78] | 230 ratio
7 | HSDAVFTDNYTRLRKQMAAKKYLNSIKN [R3P49] | 30 ratio
8 | HSDAVFTDNYTRLRKQVAAKKYLQSIKK [R3P60] | 120 ratio
9 | HSDGIFTDSYSRYRKQMAVKKYLAAVKQGGT-NH2 [R3P16] | 1.4 ratio
10 | HSDAVFTDNYTRLRKQVAAKKYLQSIKNK [R3P86] | 110 ratio
11 | HSDAVFTDNYTRLRKQIAAKKYLQTIKK [R3P61] | 140 ratio
12 | HSDAVFTDNYTRLRKQVAVKKYLQSILKK [R3P89] | 15 ratio
13 | HSDAVFTDNYTRLRKQMAAKKYLNSILK [R3P50] | 6 ratio
14 | HSDAVFTDNYTRLRKQVAAKKYLQSILKKR [R3P84] | 40 ratio
15 | HSDAVFTDQYTRLRKQLAAKKYLNTIKNKRY [R3P72] | > 600 ratio
16 | HSDAVFTDQYTRLRKQLAAHKYLNTIKNKRY [R3P75] | > 500 ratio
17 | HSDAVFTENYTKLRKQLAAKKYLNDLKK [R3P5] | 30 ratio
18 | HSDAVFTDNYTRLRKQVAVKKYLQSILKKR [R3P88] | 12 ratio
19 | Ac-HSDAVFTENYTKLRKQLAAKKYLNDLKKGGT (ends and bridges not checked) [R3P2] | > 300 ratio
20 | HSDAVFTDNYTRLRKQMAAKKYLNSIKK [R3P51] | 90 ratio
21 | HSDAVFTDNYTRLRKQMAVKKYLNSIKKGGT [R3P9] | 20 ratio
22 | HSDAVFTDNYTRLRKQVAVKKYLQSIKKK [R3P81] | 100 ratio
23 | HSDAVFTDNYTRLRKQLAAKKYLNDILKGGT [R3P23] | 23 ratio
24 | HSDAVFTDNYTRLRKQLAVKKYLNDILKGGT [R3P28] | 1 ratio
25 | HSDAVFTDNYTRLRKQLAAKKYLNDILNGGT [R3P27] | 8 ratio
26 | HSDAVFTDNYTRLRKQVAVKKYLQSIKNKRY [R3P82] | 23 ratio
27 | HSDAVFTDNYTRLRKQVAVKKYLQSILKKRY [R3P87] | 3 ratio

Row | Binder | R3 Selectivity
28 | HSDAVFTDNYTRLRKQMAVKKYLNSIKKKR [R3P57] | 190 ratio
29 | HSDAVFTDNYTRLRKQMAAKKYLNSIKKK [R3P54] | > 200 ratio
30 | HSDAVFTDNYTRLRKQMAAKKYLNSIKKKR [R3P53] | 2500 ratio
31 | HSDGIFTDSYSRYRKQMAVKKYLAAVKK [R3P40] | 2 ratio
32 | HSDAVFTDNYTRLRKQVAAKKYLQSIKKKR [R3P77] | 500 ratio
33 | HSDAVFTDNYTRLRKQMAVKKYLNSIKK-NH2 [R3P8] | 1.5 ratio
34 | HSDAVFTDNYTRLRKQMAAKKYLNSIKKKRY [R3P52] | > 250 ratio
35 | HSDAVFTDNYTRLRKQMAVKKYLNSIKNKRY [R3P59] | 70 ratio
36 | HSDAVFTDNYTRLRKQMAAKHYLNSIKNKRY [R3P74] | 150 ratio
37 | HSDAVFTDNYTRLRKQMAVKKYLNSIKKKRY [R3P56] | 100 ratio
38 | HSDAVFTDNYTRLRKQVAAKKYLQSIKNKRY [R3P66] | 250 ratio
39 | HSDAVFTDQYTRLRKQMAAKKYLNSIKNKRY [R3P71] | 660 ratio
40 | HSDAVFTDNYTRLRKQMAAHKYLNSIKNKRY [R3P73] | 170 ratio
41 | HSDAVFTDNYTRLRKQMAAKKYLNTIKNKRY [R3P70] | > 250 ratio
42 | HSDAVFTDNYTRLRKQVAAKKYLQSILKKRY [R3P83] | 60 ratio
43 | HSDAVFTDNYTRLRKQMAAKKYLNSIKNKRY [R3P55] | 280 ratio
44 | HSDAVFTDNYTRLRKQLAAKKYLNTIKNKRY [R3P67] | 330 ratio
45 | HSDAVFTDNYTRLRKQMAAKKYLQSIKNKRY [R3P69] | 190 ratio
46 | HSDAVFTDNYTRLRKQVAAKKYLNSIKK [R3P62] | 100 ratio
47 | HSDAVFTENYTKLRKQLAAKKYLNDLKKGGT [R3P3] | 130 ratio
48 | HSDGIFTDSYSRYRKQMAVKKYLAAVKKYLAAVRHG-NH2 [R3P17] | 2 ratio
49 | HSDGIFTDSYSRYRKQLAVKKYLAAVKK [R3P39] | 2 ratio
50 | HSDGIFTDSYSRYRKQLAAKKYLADVKK [R3P38] | 7 ratio
51 | HSDAVFTDNYTRLRKQMAAKKYLNSIKNKR [R3P65] | 130 ratio
52 | HSDAVFTENYTRLRKQMAVKKYLNSLKK-NH2 [R3P7] | 0.5 ratio
53 | HSDAVFTDNYTRLRKQLAVKKYLNSILN [R3P46] | 7 ratio
54 | HSDGIFTESYSRYRKQMAVKKYLAALKKKRYKQRVKNK [R3P6] | 3 ratio
